Laboratory results: patent publication US20090083877A1, “Transcription Factors, DNA and Methods for Introduction of Value-Added Seed Traits and Stress Tolerance” (priority 2002, published 2009)
Entries after “also recorded” stand apart in the source; their conditions may differ.

B1: ABF4: Arabidopsis ABI5-like ABA-Response Element-Binding Factor, bZIP, At3g19290 (protein, listed as Arabidopsis thaliana)
chain: MGTHINFNNLGGGGHPGGEGSSNQMKPTGSVMPLARQSSVYSLTFDELQNTLGGPGKDFGSMNMDELLKSIWTAEEAQAMAMTSAPAATAVAQPGAGIPPPGGNLQRQGSLTLPRTISQKTVDEVWKCLITKDGNMEGSSGGGGESNVPPGRQQTLGEMTLEEFLFRAGVVREDNCVQQMGQVNGNNNNGFYGNSTAAGGLGFGFGQPNQNSITFNGTNDSMILNQPPGLGLKMGGTMQQQQQQQQLLQQQQQQMQQLNQPHPQQRLPQTIFPKQANVAFSAPVNITNKGFAGAANNSINNNNGLASYGGTGVTVAATSPGTSSAENNSLSPVPYVLNRGRRSNTGLEKVIERRQRRMIKNRESAARSRARKQAYTLELEAEIEKLKKTNQELQKKQAEMVEMQKNELKETSKRPWGSKRQCLRRTLTGPW
B2: ABF2: Arabidopsis ABI5-like ABA-Response Element-Binding Factor, bZIP, At1g45249 (protein, listed as Arabidopsis thaliana)
chain: MDGSMNLGNEPPGDGGGGGGLTRQGSIYSLTFDEFQSSVGKDFGSMNMDELLKNIWSAEETQAMASGVVPVLGGGQEGLQLQRQGSLTLPRTLSQKTVDQVWKDLSKVGSSGVGGSNLSQVAQAQSQSQSQRQQTLGEVTLEEFLVRAGVVREEAQVAARAQIAENNKGGYFGNDANTGFSVEFQQPSPRVVAAGVMGNLGAETANSLQVQGSSLPLNVNGARTTYQQSQQQQPIMPKQPGFGYGTQMGQLNSPGIRGGGLVGLGDQSLTNNVGFVQGASAAIPGALGVGAVSPVTPLSSEGIGKSNGDSSSLSPSPYMFNGGVRGRKSGTVEKVVERRQRRMIKNRESAARSRARKQAYTVELEAEVAKLKEENDELQRKQARIMEMQKNQETEMRNLLQGGPKKKLRRTESGPW
B3: ABF3: Arabidopsis ABI5-like ABA-Response Element-Binding Factor, bZIP, At4g34000 (protein)
chain: MGSRLNFKSFVDGVSEQQPTVGTSLPLTRQNSVFSLTFDEFQNSWGGGIGKDFGSMNMDELLKNIWTAEESHSMMGNNTSYTNISNGNSGNTVINGGGNNIGGLAVGVGGESGGFFTGGSLQRQGSLTLPRTISQKRVDDVWKELMKEDDIGNGVVNGGTSGIPQRQQTLGEMTLEEFLVRAGVVREEPQPVESVTNFNGGFYGFGSNGGLGTASNGFVANQPQDLSGNGVAVRQDLLTAQTQPLQMQQPQMVQQPQMVQQPQQLIQTQERPFPKQTTIAFSNTVDVVNRSQPATQCQEVKPSILGIHNHPMNNNLLQAVDFKTGVTVAAVSPGSQMSPDLTPKSALDASLSPVPYMFGRVRKTGAVLEKVIERRQKRMIKNRESAARSRARKQAYTMELEAEIAQLKELNEELQKKQVEIMEKQKNQLLEPLRQPWGMGCKRQCLRRTLTGPW

Experiments:
[1] = test system: ABA-inducible wheat Em promoter; experiment: Em-GUS reporter transactivation in transiently transformed rice protoplasts; assay type: cell-based, Oryza sativa; conditions: for Transactivation of Em-GUS expression by overexpressed effector: effector overexpressed alone, average of four replicate transformations
Procedure: Embryonic rice (Oryza sativa) callus cultures (Radon 6 from the International Rice Research Institute, Los Bafios, Phillipines) were obtained. Embryonic rice callus cultures were grown as suspensions in liquid culture as well as on phytagel plates containing MS medium supplemented with 2.0 mg/L 2,4-D. Cultures were propagated and digested for making protoplasts as previously described except that 10 mM HEPES (Sigma, St. Louis, Mo., USA), pH 5.6, was substituted for phosphate in the Krens'F medium, and 2% (weight/volume; w/v) cellulase YC, 0.35% (w/v) macerozyme, and 0.1% (w/v) pectolyase Y23 were used for overnight digestion (Karlan Research Products, Santa Rosa, CA, USA). Protoplasts were transformed with various mixtures of DNA reporter and effector constructs using polyethylene glycol precipitation. Transformed protoplasts were incubated with or without 100 μM ABA for 16 h in the dark in Krens solution before quantifying β-glucuronidase (GUS) and luciferase (LUC) reporter enzyme activities as previously described. ABA was dissolved and stored in absolute ethanol at −20° C. as a 0.1 M stock solution. Prior to use, required dilutions of ABA were made in Krens solution, and control samples received the same volume of solvent as in ABA treatments.
(§1) Plasmid pBM207 contains the wheat (Triticum aestivum) Early Methionine-labeled (Em) promoter driving the expression of GUS, encoded by uida from Escherichia coli. Plasmid pDH359 contains ABI5 cDNA driven by Ubiquitin promoter. Plasmid pCR349.13S contains the 35S promoter driving the VP1 sense cDNA. Plasmid pDirect2.6 contains the Ubi promoter in a reverse orientation and was used as control construct to balance the total amount of input plasmid DNA between various treatments. Plasmid pAHC 18 contains the Ubi promoter driving firefly (Photinus pyralis) LUC cDNA and was included in transformations to provide an internal reference for non-ABA-inducible transient transcription in reporter enzyme assays. ABF1-ABF4, AREB3, and DPBF4 were amplified by PCR using gene-specific primers from an Arabidopsis cDNA library (Minet et al. Plant J. 2:417 (1992)) and were cloned into plasmid pDH349 (Gampala et al. J. Biol. Chem. 277: 1689 (2002)) containing the maize Ubiquitin promoter and nopaline synthase 3′ termination signals.
Simultaneously, it has been shown that ABF2, ABF3 and ABF4 overexpression in transgenic Arabidopsis results in ABA hypersensitivity and other ABA-associated phenotypes such as altered ABA-inducible gene expression and glucose signaling, reduced transpiration, and enhanced drought tolerance. The functional roles of the ABI5-like family members ABF1-ABF4 in regulation of ABA-inducible gene expression in rice protoplasts were tested and the results are shown in FIG. 1. […] Protoplasts were transformed with Em-GUS and a “dummy” effector construct (pD2.6 containing only the Ubiquitin promoter used to drive effector expression) or co-transformed with a Ubi-ABF construct and treated with or without 100 μM ABA. The values shown in FIG. 1A are the average (±S.E.M.) of four replicate transformations.
Rice protoplasts were transformed with either Em-GUS alone or in pairwise combinations of Ubi-ABF3, Ubi-ABI5, or 35S-VP1. The values in FIG. 1B are the average (±S.E.M.) of four replicate transformations. ABF3 is a related member of the ABI5-family of bZIP transcription factors.

[2] = test system: ABA-inducible wheat Em promoter; experiment: Em-GUS reporter transactivation in transiently transformed maize mesophyll protoplasts; assay type: cell-based; conditions: for Transactivation of Em-GUS expression by overexpressed effector: maize mesophyll protoplasts, effector overexpressed alone
Procedure: Plant Materials. Maize mesophyll protoplasts were isolated from 20-hr illuminated leaves of 10 day old maize seedlings that had been kept in the dark at 25° C. The middle part of the second leaves (about 6 cm in length) was cut into 0.5 mm strips with a razor blade and digested in an enzyme solution containing 1% (w/v) cellulose RS, 0.1% (w/v) macerozyme R10 (Yakult Honsha, Nishinomiya, Japan), 0.6 M mannitol, 10 mM MES (pH 5.7), 1 mM CaCl2, 1 mM MgCl2, 10 mM β-mercaptoethanol, and 0.1% BSA (w/v) for 3 hr at room temperature. Protoplasts were released by shaking on a rotary shaker at 80 rpm for 10 min and were filtered through a 70 μm nylon filter. Protoplasts were collected by centrifugation at 100 g for 2 min, washed in cold 0.6 M mannitol solution, centrifuged, and resuspended at 2×10^6/mL in cold 0.6 M mannitol. Electroporation conditions were 400 V/cm, 200 μF, 10 msec, and two pulses with a Biorad GenePulser apparatus. Each sample contained 5×10^4 protoplasts and about 50 μg DNA in 0.3 mL of 0.6 M mannitol and 20 mM KCl.
as §1
The values in FIG. 2 are the average (±S.E.M.) of four replicate transformations.
To test the involvement of ABI3-Like B3 domain transcription factors in ABA signaling, ABA-inducible reporter gene transactivation by the B3 domain-containing RAV2 was assayed in maize mesophyll protoplasts transiently co-transformed with a full length cDNA under transcriptional control of the Ubiquitin promoter. Activation of Em-GUS reporter gene expression by RAV2, relative to non-ABA inducible Ubi-LUC reference reporter as internal control, and functional interactions of RAV2 with VP1, ABI5, and the ABI5-Like ABF3 were compared in protoplasts treated with or without 100 uM ABA (see FIG. 3).

Molecule | Transactivation of Em-GUS expression by overexpressed effector [1] | Synergy with co-transformed VP1 on Em-GUS expression [2] | Synergy with exogenous ABA on Em-GUS expression [2] | Transactivation of Em-GUS expression by overexpressed effector [2] | Synergy with exogenous ABA on Em-GUS expression ([1]; 100 μM ABA, 16 h) | Synergistic activity with VP1 relative to that of ABI5 with VP1 ([1]; co-expressed with VP1) | Synergy with co-expressed VP1 on Em-GUS expression ([1]; pairwise co-transformation with 35S-VP1) | Synergy with co-expressed ABI5 on Em-GUS expression ([1]; pairwise co-transformation with Ubi-ABI5)
B1 | sufficient for transactivation of the Em promoter; also recorded: sufficient to transactivate ABA-inducible Em-GUS expression | no functional interactions with VP1 and not | synergize with exogenous ABA | sufficient for transactivation of the Em promoter; also recorded: sufficient to transactivate Em-GUS expression | – | – | – | –
B2 | no effect on Em-GUS expression | not | lower levels of ABA synergy compared to ABF3 and ABF4 | – | – | – | – | –
B3 | sufficient for transactivation of the Em promoter; also recorded: transactivated the Em promoter; also recorded: sufficient to transactivate ABA-inducible Em-GUS expression | can synergize with co-transformed VP1 | synergize with exogenous ABA | sufficient for transactivation of the Em promoter; also recorded: sufficient for specific Em-GUS transactivation; also recorded: sufficient to transactivate Em-GUS expression | strong; also recorded: acted in synergy with ABA; also recorded: interacts synergistically | about twice the synergistic activity seen between ABI5 and VP1 | synergized with each other and with ABA; also recorded: interacts synergistically | did not result in synergy
